Laboratory results as given in patent US11904007B2, “Protection from stress, anxiety, neuroinflammation, and cognitive dysfunction” (The Regents of the University of Colorado, a body corporate, priority 2018, dated 2024).

B1: rIL4: Recombinant rat IL4 (R & D Systems), injected intra-cisterna magna (protein, UniProt P20096 25-147, looked up)
Interleukin-4: CNDSPLREIINTLNQVTEKGTPCTEMFVPDVLTATRNTTENELICRASRVLRKFYFPRDVPPCLKNKSGVLGELRKLCRGVSGLNSLRSCTVNESTLTTLKDFLESLKSILRGKYLQSCTSMS

Tests used:
Assay type in all cases: in vivo, rat
[1] = tested on: IL-4; assay: Blocking of M. vaccae effects on hippocampal gene expression by ICM soluble IL-4 receptor alpha; conditions: 5 μg, ICM injection after M. vaccae at day −21, −14, −7
Procedure: FIG. 25 is a schematic depicting the experimental design configured to develop and validate IL-4 blocking methods in the brain. The schematic depicts the timing of M. vaccae or BBS treatment and intra-cisterna magna (ICM) injections containing soluble IL-4 receptor alpha or vehicle followed by tissue collection and analysis.
FIG. 26A-C show rtPCR detection in collection tissue samples after ICM injections for IL-4 (A); CD200R1 (B); and CD206 (C).
In this embodiment, rats were administered M. vaccae or BBC (at day −21, −14, and −7) and then administered 5 μg of soluble IL-4 receptor alpha or a control vehicle.

[2] = tested on: Mrc1; assay: Hippocampal Mrc1 mRNA expression (real time RT-PCR); conditions: 100 ng i.c.m., 2 h post-injection
Procedure: (§1) Animals: Adult male Sprague-Dawley rats (60-90 d old) were pair-housed with food and water available ad libitum. The colony was maintained at 22° C. on a 12 h light/dark cycle (lights on at 07:00 h).
(§2) M. vaccae treatment: M. vaccae is a saprophytic environmental mycobacterium, which we have used previously to mitigate stress-induced anxiety-like behavior and peripheral proinflammatory responses. Briefly, whole heat-killed M. vaccae (strain NCTC 11659, batch ENG 1; Bio Elpida; 10 mg/ml) was suspended in sterile borate-buffered saline (BBS) to yield a final concentration of 1 mg/ml. Sterile BBS served as the vehicle control. Consistent with our prior work with M. vaccae, experimental animals received 3× subcutaneous (s.c.) immunizations with 0.1 mg whole heat-killed M. vaccae suspension (0.1 ml) or vehicle (0.1 ml). Injections occurred at −21 d, −14 d and −7 d prior to stress exposure. FIG. 5 provides a timeline of M. vaccae treatment relative to stress exposure, behavioral testing and tissue/microglia collection.
(§3) Recombinant rat IL4 (rIL4) treatment: Vehicle (sterile 1× PBS+0.1% BSA) or rIL4 (100 ng dissolved in vehicle; R & D Systems) was injected intra-cisterna magna (i.c.m.; 5 μl total volume). Two and 24 h post-injection, hippocampus was collected for gene expression analysis of IL4-sensitive target genes. […]

[3] = tested on: Cd200r1; assay: Hippocampal Cd200r1 mRNA expression (real time RT-PCR); conditions: 100 ng i.c.m.
Procedure: as §1, §2, §3

[4] = tested on: Cd200; assay: Hippocampal Cd200 mRNA expression (real time RT-PCR); conditions: 100 ng i.c.m., 2 h and 24 h post-injection
Procedure: as §1, §2, §3

Molecule	Effect of M. vaccae administration on hippocampal gene expression [1]	Mrc1 expression in hippocampus [2]	Cd200r1 expression in hippocampus ([3]; 2 h post-injection)	Cd200r1 expression in hippocampus ([3]; 24 h post-injection)	Cd200 expression in hippocampus [4]
soluble IL-4 receptor alpha: soluble form of IL-4 receptor alpha, can inhibit IL4-mediated cell proliferation; ICM injection	blocked				
B1		significant increase	significant increase	significant increase	failed to significantly alter
